From patent US20200262930A1 (YALE UNIVERSITY, published 2020) come the findings set out here.

Positions count from the first letter of the chain named.

The chains are these.
B1: H1-L1 (humanized anti-YKL-40 antibody) (antibody, V domains shown)
VH: QIQLVQSGSELKKPGASVKISCKASGYTFTNYGMNWVRQAPGQGLEWMGWINTYTGEPTYADDFKGRFVFSLDTSVSTAYLQISSLKAEDTSVYFCARLGYGKFYVMDYWGQGTSVTVSS
VL: DVVMTQSPLSLPVTLGQPASISCRSSQSLVHSNGNTYLNWYQQRPGQSPRLLIYKVSNRFSGVPDRFSGSGSGTDFTLKISRVEAEDVGVYFCSQSTHVTWTFGGGTKLEIK
notes: Humanized, kappa light chain, human IgG (detected with goat anti-human IgG-HRP; the PK assay uses an anti-IgG1 capture antibody); also called anti-YKL-40 H1-L1
B2: H11-L5 (humanized anti-YKL-40 antibody) (antibody, V domains shown)
VH: QIQLVQSGPEVKQPGASVKISCKASGYTFTNYGMNWVKQAPGQGLKWMGWINTYTGEPTYAQGFTGRFVFSLDTSASTAYLQISSLKAEDMSTYFCARLGYGKFYVMDYWGQGTSVTVSS
VL: B1 VL with V2I, S7T, P12S, L15P, R24K, N39H, Q42L, R44K, R50Q, F92Y
notes: Humanized variant
B3: H11-L1 (humanized anti-YKL-40 antibody) (antibody, V domains shown)
VH: B2 VH
VL: B1 VL
notes: Humanized, human IgG
B4: H4-L1 (humanized anti-YKL-40 antibody) (antibody, V domains shown)
VH: B1 VH with E46K
VL: B1 VL
notes: Humanized, human IgG (detected with goat anti-human IgG-HRP)
B5: H12-L8 (humanized anti-YKL-40 antibody) (antibody, V domains shown)
VH: B2 VH with T28S, N31T, K46E, Q62D, G63D, T65K
VL: B1 VL with N39H, F92Y
notes: Humanized variant
B6: H2-L1 (humanized anti-YKL-40 antibody) (antibody, V domains shown)
VH: B1 VH with D62Q, D63G, K65T
VL: B1 VL
notes: Humanized variant

T2 sequence (Q61362 30-389 limits assumed): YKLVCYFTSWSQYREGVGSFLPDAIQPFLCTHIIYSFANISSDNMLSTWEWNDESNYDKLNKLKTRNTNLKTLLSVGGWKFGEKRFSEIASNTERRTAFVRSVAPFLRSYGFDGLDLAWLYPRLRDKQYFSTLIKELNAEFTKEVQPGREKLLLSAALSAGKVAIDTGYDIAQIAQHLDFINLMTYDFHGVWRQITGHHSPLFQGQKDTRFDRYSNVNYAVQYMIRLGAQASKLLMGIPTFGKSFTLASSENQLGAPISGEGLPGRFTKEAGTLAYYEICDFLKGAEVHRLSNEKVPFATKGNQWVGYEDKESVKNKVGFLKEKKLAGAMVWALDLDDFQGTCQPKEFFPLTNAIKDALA

The target in the first assay is T1, human CHI3L1/YKL-40 (human, UniProt P36222 22-383).
T1 construct: also called human YKL-40
T1 sequence (P36222 22-383 limits assumed): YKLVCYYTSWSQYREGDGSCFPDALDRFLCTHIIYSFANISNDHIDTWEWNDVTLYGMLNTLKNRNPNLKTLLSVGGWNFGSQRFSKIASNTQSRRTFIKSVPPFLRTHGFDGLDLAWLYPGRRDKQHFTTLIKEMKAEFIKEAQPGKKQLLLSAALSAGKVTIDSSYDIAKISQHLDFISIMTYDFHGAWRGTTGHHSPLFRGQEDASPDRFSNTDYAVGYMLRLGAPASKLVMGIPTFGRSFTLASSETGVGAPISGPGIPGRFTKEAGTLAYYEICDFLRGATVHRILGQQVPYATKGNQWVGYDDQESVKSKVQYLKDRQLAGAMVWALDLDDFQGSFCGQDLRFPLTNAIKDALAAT
Put plainly: titration ELISA against human YKL-40. On the technique in general: ELISA stands for enzyme-linked immunosorbent assay.
Take B1: the binding result is recorded as “binds”.

With B2, the binding result is on record as “binds”.

Take B3: the binding result is reported as “binds”.

In the case of B4, the binding result is recorded as “binds”.

Turning to B5, the binding result is “binds”.

For B6, the binding result is listed as “binds”.

Another assay concerns the target T2, murine BRP-39 (murine homologue of CHI3L1/YKL-40) (murine, UniProt Q61362 30-389, limits assumed).
T2 construct: also called murine YKL-40
Put plainly: titration ELISA.
With B1, the “fold difference in affinity among species (human highest)” value (shortened to “fold difference”) is not above 2 fold.

B3: the “fold difference” value was not above 2 fold.

As for B4, the “fold difference” value is not above 2 fold.

The next assay concerns the target T3, primate (Cynomolgus monkey) CHI3L1/YKL-40 (Cynomolgus monkey, UniProt A0A7N9DGM0 12-373).
T3 construct: also called primate CHI3L1/YKL-40
Put plainly: titration ELISA.
As for B1, the “fold difference” value is not above 2 fold.

Regarding B3, the “fold difference” value is not above 2 fold.

For B4, the “fold difference” value was not above 2 fold.

The next assay has as its target T2, murine BRP-39 (murine homologue of …). As to the kind of experiment: titration ELISA against murine BRP-39.
Turning to B2, the binding result is recorded as “binds”.

For B5, the binding result is “binds”.

B6: the binding result is “binds”.
